One assay has as its system CXCL9. The experiment in a line: activated CXCL9 levels (interferon-gamma and tumor necrosis factor-alpha stimulation) in Crohn's Disease subjects by medication usage. The class given is in vivo. The note with it: disease active or in remission, FIG. 7. As to the method:
(§1) Following informed consent, a heparinized whole blood sample. […] Finally, and the plate is again washed repeatedly.
In a subsequent experiment, a combination of stimulating cytokines (interferon-gamma and tumor necrosis factor-alpha) was administered to Crohn's Disease patients and the effects of medication studied.

A further assay concerns CXCL10. The note with it: within individual Crohn's Disease subjects; interferon-gamma activation; FIG. 4.
The subject of assay [1] is WBC. The experiment in a line: ex vivo blood stimulation, CXCL9 levels. In kind it is cell-based.
Text: as §1
The effects of different forms of activation and a combination of activating cytokines on CXCL9 levels in Crohn's Disease subjects was also studied.

Assay [2] has as its system WBC. The experiment in a line: ex vivo whole blood stimulation, CXCL10 release by WBC (ELISA). The class given is cell-based. The following applies: 3 hours post stimulation; subjects with Crohn's Disease or Ulcerative Colitis; FIG. 1.
Text: as §1
This response also occurs in normal individuals as well.
Background: An ELISA detects its analyte on a solid surface through an enzyme-linked reagent.

Consider `S=c1nc[nH]c2nc[nH]c12` [6 MP], for which the “effect of medication usage on activated CXCL9 levels” value in the assay on CXCL9 was “brought about a change”.
For the molecule azathioprine/6MP, the “effect of medication on activated CXCL10 levels over time” value in the assay on CXCL10 is given as “significant changes”.

B1: interferon-gamma (protein, UniProt P01579 24-161, looked up)
Interferon gamma: QDPYVKEAENLKKYFNAGHSDVADNGTLFLGILKNWKEESDRKIMQSQIVSFYFKLFKNFKDDQSIQKSVETIKEDMNVKFFNSNKKKRDDFEKLTNYSVTDLNVQRKAIHELIQVMAELSPAAKTGKRKRSQMLFRG
notes: pro-inflammatory stimulant cytokine added to the blood sample
Consider B1, for which the “serum CXCL9 concentration levels after stimulation” value with WBC [1] (Crohn's Disease subjects, FIG. 6) is “increased”; in the assay on WBC [1] (Ulcerative Colitis subjects, active and inactive disease, FIG. 8), “increased”. Also, in the assay with WBC [2], the “CXCL10 response following stimulation” value is “a larger spread and an increase in the measurable values”.

Source of the values: patent US20060216716A1, “Immunologic activity measures for t helper on-associated conditions” (priority 2003, published 2006).
